Experimental data taken from patent US20250020634A1.

Target: NaV1.5-V5 (cardiac voltage-gated sodium channel alpha subunit, SCN5A)
Experiment: cell-based or functional assay

rat β1-V5-6×HIS (sodium channel beta-1 subunit, SCN1B) (from UniProt Q00954 19-218)
GV ΔV1/2 (mV), whole-cell patch clamp, BeHAPe cells, NaV1.5 + β1: 6.7 mV
GV ΔV1/2 (mV), whole-cell patch clamp, eHAP cells, NaV1.5 + β1: 0.2 mV
SSI ΔV1/2 (mV), whole-cell patch clamp, BeHAPe cells, NaV1.5 + β1: 8.8 mV
SSI ΔV1/2 (mV), whole-cell patch clamp, eHAP cells, NaV1.5 + β1: 3.2 mV
shift of GV V1/2 (fit to mean values, FIG. 5A), BeHAPe cells: 7.5 mV
shift of SSI V1/2 (fit to mean values, FIG. 5A), BeHAPe cells: 7.5 mV
Δτ inactivation at V1/2 (ms), whole-cell patch clamp, BeHAPe cells, NaV1.5 + β1: -1.7 ms
Δτ inactivation at V1/2 (ms), whole-cell patch clamp, eHAP cells, NaV1.5 + β1: -0.3 ms

rat β2-HA (sodium channel beta-2 subunit, SCN2B) (from UniProt P54900 30-215)
GV ΔV1/2 (mV), whole-cell patch clamp, BeHAPe cells, NaV1.5 + β2: -2.5 mV
SSI ΔV1/2 (mV), whole-cell patch clamp, BeHAPe cells, NaV1.5 + β2: -9.9 mV
shift of SSI V1/2 (fit to mean values, FIG. 5B), BeHAPe cells: -5.9 mV
Δτ inactivation at V1/2 (ms), whole-cell patch clamp, BeHAPe cells, NaV1.5 + β2: -0.5 ms

β1 & β2 (rat β1-V5-6×HIS and rat β2-HA simultaneously co-expressed) (from UniProt Q00954 19-157; P54900 30-157)
GV ΔV1/2 (mV), whole-cell patch clamp, BeHAPe cells, NaV1.5 + β1 & β2: 7.9 mV
SSI ΔV1/2 (mV), whole-cell patch clamp, BeHAPe cells, NaV1.5 + β1 & β2: 9.1 mV
shift of GV V1/2 (fit to mean values, FIG. 5E), BeHAPe cells: 9.3 mV
shift of SSI V1/2 (fit to mean values, FIG. 5E), BeHAPe cells: 13.4 mV
Δτ inactivation at V1/2 (ms), whole-cell patch clamp, BeHAPe cells, NaV1.5 + β1 & β2: 0 ms

B1: Myelin protein zero (MPZ) (protein, UniProt P25189 1-248, looked up, species assumed)
chain: MAPGAPSSSPSPILAVLLFSSLVLSPAQAIVVYTDREVHGAVGSRVTLHCSFWSSEWVSDDISFTWRYQPEGGRDAISIFHYAKGQPYIDEVGTFKERIQWVGDPRWKDGSIVIHNLDYSDNGTFTCDVKNPPDIVGKTSQVTLYVFEKVPTRYGVVLGAVIGGVLGVVLLLLLLFYVVRYCWLRRQAALQRRLSAMEKGKLHKPGKDASKRGRQTPVLYAMLDHSRSTKAVSEKKAKGLGESRKDKK
modifications: full-length
GV ΔV1/2 (mV), whole-cell patch clamp, BeHAPe cells, NaV1.5 + MPZ: 8.7 mV
SSI ΔV1/2 (mV), whole-cell patch clamp, BeHAPe cells, NaV1.5 + MPZ: 6.3 mV
shift of GV V1/2 (fit to mean values, FIG. 5F), BeHAPe cells: 7.4 mV
shift of SSI V1/2 (fit to mean values, FIG. 5F), BeHAPe cells: 6.9 mV
Δτ inactivation at V1/2 (ms), whole-cell patch clamp, BeHAPe cells, NaV1.5 + MPZ: 0.2 ms

B2: human β4 (sodium channel beta-4 subunit, SCN4B) (protein, UniProt Q8IWT1 31-228, looked up)
chain: LEVSVGKATDIYAVNGTEILLPCTFSSCFGFEDLHFRWTYNSSDAFKILIEGTVKNEKSDPKVTLKDDDRITLVGSTKEKMNNISIVLRDLEFSDTGKYTCHVKNPKENNLQHHATIFLQVVDRLEEVDNTVTLIILAVVGGVIGLLILILLIKKLIIFILKKTREKKKECLVSSSGNDNTENGLPGSKAEEKPPSKV
GV ΔV1/2 (mV), whole-cell patch clamp, BeHAPe cells, NaV1.5 + β4: 5.2 mV
SSI ΔV1/2 (mV), whole-cell patch clamp, BeHAPe cells, NaV1.5 + β4: 2.4 mV
shift of GV V1/2 (fit to mean values, FIG. 5D), BeHAPe cells: 6.1 mV
Δτ inactivation at V1/2 (ms), whole-cell patch clamp, BeHAPe cells, NaV1.5 + β4: 0.5 ms

B3: human β3 (sodium channel beta-3 subunit, SCN3B) (protein, UniProt Q9NY72 23-215, looked up)
chain: FPVCVEVPSETEAVQGNPMKLRCISCMKREEVEATTVVEWFYRPEGGKDFLIYEYRNGHQEVESPFQGRLQWNGSKDLQDVSITVLNVTLNDSGLYTCNVSREFEFEAHRPFVKTTRLIPLRVTEEAGEDFTSVVSEIMMYILLVFLTLWLLIEMIYCYRKVSKAEEAAQENASDYLAIPSENKENSAVPVEE
GV ΔV1/2 (mV), whole-cell patch clamp, BeHAPe cells, NaV1.5 + β3: 8.8 mV
SSI ΔV1/2 (mV), whole-cell patch clamp, BeHAPe cells, NaV1.5 + β3: 9.1 mV
shift of GV V1/2 (fit to mean values, FIG. 5C), BeHAPe cells: 7.4 mV
shift of SSI V1/2 (fit to mean values, FIG. 5C), BeHAPe cells: 9.4 mV
Δτ inactivation at V1/2 (ms), whole-cell patch clamp, BeHAPe cells, NaV1.5 + β3: 0.4 ms
